Reference: US20090196913A1, “Anti-Alpha-V Immunoliposome Composition, Methods, and Uses” (priority 2007, published 2009)

Biological target: murine αVβ3/5 integrin on the murine melanoma cell line B16-F10 (murine) (UniProt P43406)
Test: cell-based or functional assay
Design: IC50 of doxorubicin, cell viability, murine melanoma B16-F10, integrin targeted liposome-entrapped dox 90:1: unit not given beside the values

murine αVβ3/5 integrin on the murine melanoma cell line B16-F10 (murine), sequence (P43406 31-1044): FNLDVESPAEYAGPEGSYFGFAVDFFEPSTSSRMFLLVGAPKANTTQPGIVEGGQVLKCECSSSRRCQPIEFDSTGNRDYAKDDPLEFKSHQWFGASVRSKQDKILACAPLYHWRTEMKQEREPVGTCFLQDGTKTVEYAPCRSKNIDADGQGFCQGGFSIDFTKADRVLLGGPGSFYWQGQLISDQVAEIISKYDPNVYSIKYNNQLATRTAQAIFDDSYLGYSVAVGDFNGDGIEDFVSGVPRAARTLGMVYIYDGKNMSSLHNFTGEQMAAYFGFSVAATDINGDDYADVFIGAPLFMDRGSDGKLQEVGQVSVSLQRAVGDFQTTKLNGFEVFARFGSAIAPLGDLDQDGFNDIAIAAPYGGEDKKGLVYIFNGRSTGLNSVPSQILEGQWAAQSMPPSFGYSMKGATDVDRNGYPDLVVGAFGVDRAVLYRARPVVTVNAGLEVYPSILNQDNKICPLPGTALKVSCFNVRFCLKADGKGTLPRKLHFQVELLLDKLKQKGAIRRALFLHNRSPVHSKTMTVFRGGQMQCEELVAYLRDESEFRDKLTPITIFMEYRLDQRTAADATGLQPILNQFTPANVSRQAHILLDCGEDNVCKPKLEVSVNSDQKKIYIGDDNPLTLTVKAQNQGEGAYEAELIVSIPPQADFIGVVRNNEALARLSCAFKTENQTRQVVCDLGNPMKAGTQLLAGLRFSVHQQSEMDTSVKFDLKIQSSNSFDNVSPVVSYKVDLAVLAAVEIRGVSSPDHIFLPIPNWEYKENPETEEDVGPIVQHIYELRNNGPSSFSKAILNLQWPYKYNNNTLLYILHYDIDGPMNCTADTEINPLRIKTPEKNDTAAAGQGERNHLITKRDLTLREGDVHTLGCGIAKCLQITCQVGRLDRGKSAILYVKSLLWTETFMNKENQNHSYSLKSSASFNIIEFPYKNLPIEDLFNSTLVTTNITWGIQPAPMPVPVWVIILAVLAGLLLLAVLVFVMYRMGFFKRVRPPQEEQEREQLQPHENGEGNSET

Substance “CNTO95 Fab′ (from pepsin cleavage, reduction and reoxidation) conjugated to PEG-DSPE on the surface of liposomes” has an IC50 of doxorubicin, cell viability, murine melanoma B16-F10, integrin targeted liposome-entrapped dox 90:1 greater than 200 and an Increase (ratio of IC50 of liposome-entrapped doxorubicin to IC50 of 90:1 integrin-targeted liposomes), murine melanoma B16-F10 of 1.
